The record followed here is article PMC2932838 (Biochemistry, 2010).

In assay [1] the target is Recombinant Aα504–610 fragment (C-terminal sub-domain of the αC-domain) (human). In words: ELISA. Background: An ELISA detects its analyte on a solid surface through an enzyme-linked reagent.
In assay [2] the target is Recombinant Aα392–610 fragment (human fibrinogen αC-domain) (human). In words: ELISA.
In assay [3] the target is Fibrin made from surface-adsorbed or chip-immobilized human fibrinogen by thrombin (most probably monomeric) (human) (UniProt P02679). The assay can be described thus: ELISA.
The target of assay [4] is Recombinant Aα504–610 fragment (C-terminal sub-domain of the αC-domain) (human). In words: ELISA. This is another data set of the same source.
The target of assay [5] is Fibrin made from surface-adsorbed or chip-immobilized human fibrinogen by thrombin (most probably monomeric) (human) (UniProt P02679). The assay can be described thus: ELISA. The source holds these as a separate data set.
For assay [6], the target named is Recombinant Aα221–610 fragment (human fibrinogen αC region) (human). In words: ELISA.
Assay [7] addresses Recombinant Aα392–610 fragment (human fibrinogen αC-domain) (human). In words: ELISA. This is another data set of the same source.
The target in assay [8] is Fibrin made from surface-adsorbed or chip-immobilized human fibrinogen by thrombin (most probably monomeric) (human) (UniProt P02679). In words: ELISA. This is another data set of the same source.
Assay [9] concerns the target Recombinant Aα392–610 fragment (human fibrinogen αC-domain) (human). The assay can be described thus: ELISA. The source holds these as a separate data set.
Assay [10] has as its target Fibrin made from surface-adsorbed or chip-immobilized human fibrinogen by thrombin (most probably monomeric) (human) (UniProt P02679). The assay can be described thus: ELISA. The source holds these as a separate data set.
Assay [11] has as its target T1, Plasminogen-depleted human fibrinogen (human, UniProt P02671-2 36-644; P02675 45-491; P02679 27-453). The assay can be described thus: ELISA.
For assay [12], the target named is T1, Plasminogen-depleted human fibrinogen. The assay can be described thus: ELISA. This is another data set of the same source.
Assay [13] addresses Fibrinogen D1 fragment (human). The assay can be described thus: ELISA.
The target of assay [14] is Fibrinogen D1 fragment (human). In words: ELISA. This is another data set of the same source.
Assay [15] addresses Polymeric fibrin (cross-linked fibrin oligomers/polymers prepared on the sensor chip) (human) (UniProt P02679). The assay can be described thus: SPR.
For assay [16] the target is unchanged. In words: SPR. This is another data set of the same source. (SPR reads the build-up and loss of mass on a sensor chip optically.)
Assay [17] has as its target T2, Human α2-antiplasmin, Asn-α2-AP form (human, UniProt P08697 40-491).
T2 sequence (looked up): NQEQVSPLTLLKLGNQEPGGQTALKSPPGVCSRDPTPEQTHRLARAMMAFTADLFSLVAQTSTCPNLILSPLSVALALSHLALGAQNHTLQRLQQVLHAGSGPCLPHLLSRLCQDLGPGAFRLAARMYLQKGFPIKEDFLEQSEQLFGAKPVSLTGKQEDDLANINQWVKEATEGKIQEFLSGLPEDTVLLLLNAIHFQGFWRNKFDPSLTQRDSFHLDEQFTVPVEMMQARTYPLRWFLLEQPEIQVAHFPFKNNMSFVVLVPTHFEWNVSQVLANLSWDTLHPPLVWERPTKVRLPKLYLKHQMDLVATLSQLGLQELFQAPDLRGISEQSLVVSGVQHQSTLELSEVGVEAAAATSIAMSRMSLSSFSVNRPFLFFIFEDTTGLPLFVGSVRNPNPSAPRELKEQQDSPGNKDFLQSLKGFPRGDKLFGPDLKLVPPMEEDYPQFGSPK
In words: SPR.

Read-outs that look alike come from different tables or passages of the source.

B1: Biotinylated human α2-antiplasmin (Asn-α2-AP form) (natural protein, UniProt P08697 40-491, looked up)
chain: NQEQVSPLTLLKLGNQEPGGQTALKSPPGVCSRDPTPEQTHRLARAMMAFTADLFSLVAQTSTCPNLILSPLSVALALSHLALGAQNHTLQRLQQVLHAGSGPCLPHLLSRLCQDLGPGAFRLAARMYLQKGFPIKEDFLEQSEQLFGAKPVSLTGKQEDDLANINQWVKEATEGKIQEFLSGLPEDTVLLLLNAIHFQGFWRNKFDPSLTQRDSFHLDEQFTVPVEMMQARTYPLRWFLLEQPEIQVAHFPFKNNMSFVVLVPTHFEWNVSQVLANLSWDTLHPPLVWERPTKVRLPKLYLKHQMDLVATLSQLGLQELFQAPDLRGISEQSLVVSGVQHQSTLELSEVGVEAAAATSIAMSRMSLSSFSVNRPFLFFIFEDTTGLPLFVGSVRNPNPSAPRELKEQQDSPGNKDFLQSLKGFPRGDKLFGPDLKLVPPMEEDYPQFGSPK
modifications: biotin (EZ-Link Sulfo-NHS-Biotinylation Kit), sites not stated
Broadly, the Kd is the equilibrium constant for the complex coming apart. For the molecule B1, the Kd in [1] amounted to 130 nM; in [2], 141 nM; in assay [3], 101 nM; in assay [4], 123 nM; in [5], 102 nM; in assay [6], 131 nM. For the same molecule, the Kd in assay [7] was found to be 157 nM; in assay [8] it was 109 nM; in [9] it was 111 nM; in assay [10], 25 nM; in assay [11] it was 179 nM; in assay [12] it was 102 nM.

B2: Biotinylated human α2-antiplasmin (Asn-α2-AP form), P08697 40-491 (natural protein)
chain: NQEQVSPLTLLKLGNQEPGGQTALKSPPGVCSRDPTPEQTHRLARAMMAFTADLFSLVAQTSTCPNLILSPLSVALALSHLALGAQNHTLQRLQQVLHAGSGPCLPHLLSRLCQDLGPGAFRLAARMYLQKGFPIKEDFLEQSEQLFGAKPVSLTGKQEDDLANINQWVKEATEGKIQEFLSGLPEDTVLLLLNAIHFQGFWRNKFDPSLTQRDSFHLDEQFTVPVEMMQARTYPLRWFLLEQPEIQVAHFPFKNNMSFVVLVPTHFEWNVSQVLANLSWDTLHPPLVWERPTKVRLPKLYLKHQMDLVATLSQLGLQELFQAPDLRGISEQSLVVSGVQHQSTLELSEVGVEAAAATSIAMSRMSLSSFSVNRPFLFFIFEDTTGLPLFVGSVRNPNPSAPRELKEQQDSPGNKDFLQSLKGFPRGDKLFGPDLKLVPPMEEDYPQFGSPK
modifications: here or on the partner: biotin (EZ-Link Sulfo-NHS-Biotinylation Kit), sites not stated
For the molecule B2, the results for the Kd in assay [13] and in assay [14] were 197 nM and 165 nM, respectively.

B3: Human α2-antiplasmin, Asn-α2-AP form (natural protein)
chain: NQEQVSPLTLLKLGNQEPGGQTALKSPPGVCSRDPTPEQTHRLARAMMAFTADLFSLVAQTSTCPNLILSPLSVALALSHLALGAQNHTLQRLQQVLHAGSGPCLPHLLSRLCQDLGPGAFRLAARMYLQKGFPIKEDFLEQSEQLFGAKPVSLTGKQEDDLANINQWVKEATEGKIQEFLSGLPEDTVLLLLNAIHFQGFWRNKFDPSLTQRDSFHLDEQFTVPVEMMQARTYPLRWFLLEQPEIQVAHFPFKNNMSFVVLVPTHFEWNVSQVLANLSWDTLHPPLVWERPTKVRLPKLYLKHQMDLVATLSQLGLQELFQAPDLRGISEQSLVVSGVQHQSTLELSEVGVEAAAATSIAMSRMSLSSFSVNRPFLFFIFEDTTGLPLFVGSVRNPNPSAPRELKEQQDSPGNKDFLQSLKGFPRGDKLFGPDLKLVPPMEEDYPQFGSPK
For B3, the results for the Kd in assay [15] and in assay [16] were 68 nM and 45 nM, respectively.

B4: Fibrin-derived D-D:E complex (complex)
chain 1: VSEDLRSRIEVLKRKVIEKVQHIQLLQKNVRAQLVDMKRLEVDIDIKIRSCRGSCSRALAREVDLKDYEDQQKQLEQVIAKDLLPSR
chain 2: DNENVVNEYSSELEKHQLYIDETVNSNIPTNLRVLRSILENLRSKIQKLESDVSAQMEYCRTPCTVSCNIPVVSGKECEEIIRKGGETSEMYLIQPDSSVKPYRVYCDMNTENGGWTVIQNRQDGSVDFGRKWDPYKQGFGNVATNTDGKNYCGLPGEYWLGNDKISQLTRMGPTELLIEMEDWKGDKVKAHYGGFTVQNEANKYQISVNKYRGTAGNALMDGASQLMGENRTMTIHNGMFFSTYDRDNDGWLTSDPRKQCSKEDGGGWWYNRCHAANPNGRYYWGGQYTWDMAKHGTDDGVVWMNWKGSWYSMRKMSMKIRPFFPQQ
chain 3: KMLEEIMKYEASILTHDSSIRYLQEIYNSNNQKIVNLKEKVAQLEAQCQEPCKDTVQIHDITGKDCQDIANKGAKQSGLYFIKPLKANQQFLVYCEIDGSGNGWTVFQKRLDGSVDFKKNWIQYKEGFGHLSPTGTTEFWLGNEKIHLISTQSAIPYALRVELEDWNGRTSTADYAMFKVGPEADKYRLTYAYFAGGDAGDAFDGFDFGDDPSDKFFTSHNGMQFSTWDNDNDKFEGNCAEQDGSGWWMNKCHAGHLNGVYYQGGTYSKASTPNGYDNGIIWATWKTRWYSMKKTTMKIIPFNRLTIGEGQQHHLGGAK
chain 4: GPRVVERHQSACKDSDWPFCSDEDWNYKCPSGCRMKGLIDEVNQDFTNRINKLKNSLFEYQK
chain 5: GHRPLDKKREEAPSLRPAPPPISGGGYRARPAKAAATQKKVERKAPDAGGCLHADPDLGVLCPTGCQLQEALLQQERPIRNSVDELNNNVEAVSQTSSSSFQYMYLLK
chain 6: YVATRDNCCILDERFGSYCPTTCGIADFLSTYQTKVDKDLQSLEDILHQVENKTSEVKQLIK
modifications: covalent γ-γ cross-linking between the D regions
With B4, in assay [17], binding was characterised by a dissociation constant (Kd) of 1400 ± 400 nM.
